Assay results from patent US20230263891A1, “SONOGENETIC STIMULATION OF CELLS EXPRESSING TRPA1” (Salk Institute for Biological Studies, priority 2020, published 2023).
Entries after “also recorded” stand apart in the source; their conditions may differ.

Columns and labels:
[1] = biological target: human-TRPV1 (Homo sapiens, UniProt Q8NER1); type: cell-based; conditions: capsaicin 3 μM
[2] = tested on: HEK cells; type: cell-based, human; conditions: 0.1% , positive control
From the text: FIGS. 6A-6J: Ultrasound stimulation at 2.5 MPa is safe as assessed by intracellular uptake of propidium iodide. FIG. 6A: Image showing bright field (BF) image for GCaMP6f-HEK cells, and the corresponding GFP channel (FIG. 6B) and propidium iodide channel (FIG. 6C) before ultrasound stimulation. Multiple trials with ultrasound stimulation at 2.5 MPa 100 ms had no effect on the intracellular levels of propidium iodide (FIG. 6D) n=3 stims. FIG. 6E: Image showing HEK cells used for the positive control, including GFP channel (FIG. 6F) and propidium iodide channel before treatment (FIG. 6G). […] Time course for the propidium iodide signal for an ultrasound stimulated cell highlighted in FIG. 6A, shown in FIG. 6I, and for a cell treated with […] highlighted in FIG. 6E, shown in FIG. 6J. Scale bar, 20 μm.
To facilitate rapid screening of ultrasound-triggered cellular responses, an optical imaging setup was aligned with a custom designed transducer. In particular, a single-crystal 6.91 MHz lithium niobate transducer (FIG. 1A) that lacks hysteresis and generates minimal heat as it converts electrical input into mechanical energy was designed. Such a transducer reduced ultrasound-triggered temperature changes. […]

[3] = tested on: rat primary neurons; assay: Whole-cell patch clamp (voltage and current clamp) of primary neurons under ultrasound; type: cell-based
[4] = tested on: Human Embryonic Kidney 293T (HEK) cells; assay: Ultrasound-evoked GCaMP6f calcium response of HEK cells transfected with candidate channels (screen and TRPA1 variants); type: cell-based; conditions: for Response to ultrasound stimulation (cells activated, GCaMP6f): transfected GCaMP6f HEK cells, 6.91 MHz, screen at 100 msecs, 1.5 MPa
[5] = Rotarod motor learning task; conditions: cortical expression; 5 days
[6] = tested on: mouse primary cortical neurons; assay: GCaMP6f calcium imaging of primary cortical neurons under ultrasound or AITC; type: cell-based
[7] = tested on: layer V motor cortical neurons; assay: c-fos expression in cortical neurons after ultrasound in vivo; set-up: species or system mouse
[8] = tested on: excitable HEK cells; assay: Patch-clamp electrophysiology of excitable HEK cells expressing TRPA1 channel polypeptides under ultrasound; type: cell-based, human
[9] = hsTRPA1-expressing primary neurons, ultrasound

human-TRPV1, sequence (Q8NER1 whole entry): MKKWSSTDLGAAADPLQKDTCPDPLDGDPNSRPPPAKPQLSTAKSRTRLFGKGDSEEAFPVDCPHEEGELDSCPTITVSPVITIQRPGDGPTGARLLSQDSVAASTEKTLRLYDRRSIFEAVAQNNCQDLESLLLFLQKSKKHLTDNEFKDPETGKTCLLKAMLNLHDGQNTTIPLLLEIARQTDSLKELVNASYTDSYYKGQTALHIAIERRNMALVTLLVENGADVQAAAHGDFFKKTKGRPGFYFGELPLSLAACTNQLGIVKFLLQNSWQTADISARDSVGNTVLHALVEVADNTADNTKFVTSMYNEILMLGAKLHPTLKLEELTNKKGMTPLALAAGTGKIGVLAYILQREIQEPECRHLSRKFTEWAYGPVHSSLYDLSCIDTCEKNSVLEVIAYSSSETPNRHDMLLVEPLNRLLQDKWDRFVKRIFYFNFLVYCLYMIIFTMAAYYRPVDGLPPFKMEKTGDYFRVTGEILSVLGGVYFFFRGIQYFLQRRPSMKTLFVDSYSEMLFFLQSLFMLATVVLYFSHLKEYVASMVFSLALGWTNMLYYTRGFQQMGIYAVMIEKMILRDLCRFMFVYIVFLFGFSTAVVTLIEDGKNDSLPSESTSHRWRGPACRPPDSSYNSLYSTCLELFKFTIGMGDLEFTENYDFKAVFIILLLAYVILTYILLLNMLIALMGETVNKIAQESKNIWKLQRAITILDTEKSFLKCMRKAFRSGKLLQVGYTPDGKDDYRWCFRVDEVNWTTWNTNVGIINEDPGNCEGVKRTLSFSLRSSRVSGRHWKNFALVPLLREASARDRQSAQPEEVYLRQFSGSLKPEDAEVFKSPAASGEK

In the case of `COc1cc(CNC(=O)CCCC/C=C/C(C)C)ccc1O` [capsaicin], the “Response of HEK cells expressing human TRPV1 to compound” value [1] is reported as “respond”.

In the case of Triton-X, the Intracellular propidium iodide [2] is reported as “significant increase of intracellular propidium iodide”.

B1: hsTRPA1: human TRPA1 channel protein Clone 63 (non-mutated/WT), SEQ ID NO: 4; RefSeq XP_016869435.1 (protein, listed as Homo sapiens)
chain: MKRSLRKMWRPGEKKEPQGVVYEDVPDDTEDFKESLKVVFEGSAYGLQNFNKQKKLKRCDDMDTFFLHYAAAEGQIELMEKITRDSSLEVLHEMDDYGNTPLHCAVEKNQIESVKFLLSRGANPNLRNFNMMAPLHIAVQGMNNEVMKVLLEHRTIDVNLEGENGNTAVIIACTTNNSEALQILLKKGAKPCKSNKWGCFPIHQAAFSGSKECMEIILRFGEEHGYSRQLHINFMNNGKATPLHLAVQNGDLEMIKMCLDNGAQIDPVEKGRCTAIHFAATQGATEIVKLMISSYSGSVDIVNTTDGCHETMLHRASLFDHHELADYLISVGADINKIDSEGRSPLILATASASWNIVNLLLSKGAQVDIKDNFGRNFLHLTVQQPYGLKNLRPEFMQMQQIKELVMDEDNDGCTPLHYACRQGGPGSVNNLLGFNVSIHSKSKDKKSPLHFAASYGRINTCQRLLQDISDTRLLNEGDLHGMTPLHLAAKNGHDKVVQLLLKKGALFLSDHNGWTALHHASMGGYTQTMKVILDTNLKCTDRLDEDGNTALHFAAREGHAKAVALLLSHNADIVLNKQQASFLHLALHNKRKEVVLTIIRSKRWDECLKIFSHNSPGNKCPITEMIEYLPECMKVLLDFCMLHSTEDKSCRDYYIEYNFKYLQCPLEFTKKTPTQDVIYEPLTALNAMVQNNRIELLNHPVCKEYLLMKWLAYGFRAHMMNLGSYCLGLIPMTILVVNIKPGMAFNSTGIINETSDHSEILDTTNSYLIKTCMILVFLSSIFGYCKEAGQIFQQKRNYFMDISNVLEWIIYTTGIIFVLPLFVEIPAHLQWQCGAIAVYFYWMNFLLYLQRFENCGIFIVMLEVILKTLLRSTVVFIFLLLAFGLSFYILLNLQDPFSSPLLSIIQTFSMMLGDINYRESFLEPYLRNELAHPVLSFAQLVSFTIFVPIVLMNLLIGLAVGDIAEVQKHASLKRIAMQVELHTSLEKKLPLWFLRKVDQKSTIVYPNKPRSGGMLFHIFCFLFCTGEIRQEIPNADKSLEMEILKQKYRLKDLTFLLEKQHELIKLIIQKMEIISETEDDDSHCSFQDRFKKEQMEQRNSRWNTVLRAVKAKTHHLEP
With B1 the “Ultrasound-evoked action potentials in assayed neurons” value ([3]; current clamp) was “all assayed hsTRPA1-expressing neurons showed ultrasound-evoked action potentials”, the “Lowest ultrasound pressure triggering action potentials” value ([3]; current clamp, 6.91 MHz) was 0.2 MPa and the “Current responses to ultrasound in voltage clamp” value ([3]; whole-cell, within a few milliseconds of ultrasound stimulation, 0.25 MPa range) was over 400 pA. The “Responsiveness to ultrasound stimulation among TRPA channels from different species (% of cells showing a response)” value ([4]; HEK cells, 100 ms ultrasound pulse at 3 MPa 6.91 MHz) was “the most responsive to ultrasound stimulation”, the “Response to ultrasound stimulation (cells activated, GCaMP6f)” value [4] was “robust responses; also recorded: selectively activated by ultrasound stimulation in a pressure- and duration-dependent manner” and the “Response to ultrasound stimulation (cells activated, GCaMP6f)” value ([4]; listed as human homolog) was “the best candidate”. The “Ability to learn the rotarod task versus GFP-expressing animals” value [5] was “comparable ability to learn the rotarod task”, the “Ultrasound-triggered intracellular calcium in expressing neurons versus CRE control” value ([6]; E18 mouse primary cortical neurons, AAV infected, 100 ms, 2.5 MPa) was “significant increase in intracellular calcium” and the Response duration [6, 9] was 2 to 30 s. The “Response latency after stimulus onset (majority of neurons)” value [6, 9] was 500 to 900 ms, the “Repeated ultrasound stimulation: cell health and calcium flux” value ([6]; repetitive 100 ms, 2.5 MPa ultrasound stimulation) was “without apparent deleterious effects on cell health or a substantial decrement in calcium flux” and the “c-fos expression in the auditory cortex after ultrasound” value ([7]; hsTRPA1-expressing mice) was “not detected”. For the same molecule, the “Number of c-fos positive cells in cortical motor neurons after ultrasound” value ([7]; hsTRPA1-expressing transgenic mice versus GFP) was “significantly increased the number of c-fos positive cells”, the “Electrical properties (I-V curve) versus dTom controls” value [8] was “no significant disruptions in their electrical properties” and the “Basal rate of activity before ultrasound versus dTom controls” value ([8]; cell-attached) was “higher basal rates of activity”. For the same molecule, the “Inward currents in response to ultrasound versus dTom controls” value ([8]; cell-attached) was “significantly larger and more numerous” and the “Electrophysiological responses to ultrasound versus GFP control” value ([8]; patch clamp assay) was “Significant electrophysiological responses to ultrasound”.
